The record followed here is the supplement of paper PMC12042874.

± gives the uncertainty stated by the source.

A short description of the data set: amyloid nucleation score (Sup35N fusion, yeast selection) (log enrichment); library NNK1; higher = more nucleation; inactive = no reads after selection. A digest of the protocol:
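The nucleation score is a DiMSum log enrichment of output over input reads, centred on the mode score of non-aggregating sequences. Sequences under 100 input reads were excluded, and reads came from Illumina sequencing of plasmid inserts. Psi-negative yeast expressing Sup35N fused to peptides of 20 random codons were induced with 100 μM copper sulfate for 24 hours and grown 7 days at 30°C on medium lacking adenine and uracil. Random libraries had three technical output replicates.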
Take NGHLRSINTSSARCMPAVFT: the amyloid nucleation score is -0.112 ± 0.53. As to WPLLPVELNVSTRHENGLLM, the amyloid nucleation score was 1.4 ± 0.34. For WLAHRNWLC, the amyloid nucleation score stood at 0.103 ± 0.7.

LCLGLHSNLSLSMLRLLVLE registered an amyloid nucleation score of -0.482 ± 1.4. Substance VWCVFFLVLYFYR had an amyloid nucleation score of 0.422 ± 0.57. Consider CTAQTSCILW, for which the amyloid nucleation score is 0.2 ± 0.29. The substance RYHTVYGIYGRLWGWFMKFD displayed an amyloid nucleation score of -0.159 ± 0.33. The result for GKVIQHG reads -0.579 ± 1.7; that for AVSLRWCTGINGADKSCAYQ, 1.19 ± 0.43. IITMIP registered an amyloid nucleation score of -0.514 ± 0.65. For the substance IGCGGVPKNQCWGPERFLEW, the amyloid nucleation score was -0.132 ± 0.57. NCFRTSCKSGEWLQLFIRRG returned an amyloid nucleation score of 0.275 ± 0.39. Substance VRSFNRGFKMHTYIPTHFLW came in with an amyloid nucleation score of -0.55 ± 0.26. For the substance SSNWLRY, the amyloid nucleation score came to 0.692 ± 0.66. To GACECDGYVTWCLRGIFGAK belongs -1.41 ± 0.94; to YFCSSGWANVMLLLSVQTNR, 0.173 ± 0.35. Take NNVRYT: the amyloid nucleation score entry is “inactive”. On to INTCCIRCFRQYGNFNKIKT, for which the amyloid nucleation score came to 0.662 ± 1.1.

As for AVLWTHQYFYYYIGLAF, the amyloid nucleation score was -0.267 ± 0.68. The substance RKNFMGSEFVLDNILCLFLL came in with an amyloid nucleation score of 7.583 ± 0.055.

Take IWYSDVGPTTN: the amyloid nucleation score is -1.14 ± 0.56. As to TIKMDTQVLVYIRKRNKYCW, the amyloid nucleation score was -0.746 ± 0.79. To VNHCMMHEYLGGLLSSVIG belongs 0.773 ± 0.24.

The substance CCQYSWSNVMSVRKLSAWLH showed an amyloid nucleation score of 0.04 ± 0.34.

As for MRTDFERHIVSYVSELCKLP, the amyloid nucleation score was -0.162 ± 0.73.

Substance SSNLRKTFMSAMHVSSCMV returned an amyloid nucleation score of 0.396 ± 0.56. RVDGVKIRGYNWHLLMITCI registered an amyloid nucleation score of 0.083 ± 0.6. The result for LTEIVYTVGAEGTLWRSGAA reads 0.298 ± 0.45.

AVMPHCSCTRNQRFRLVSMH displayed an amyloid nucleation score of 0.707 ± 0.85. For the substance NLALITWFESYCQTMRSAWI, the amyloid nucleation score was -0.145 ± 0.26. Consider SLKMMIFQRGFYTSIG, for which the amyloid nucleation score was 1.75 ± 0.13. The result for RFRSCSYLVNRSSMLAATDG reads “inactive”. The result for ETEGSELFNFWAGVNWRRIQ reads -0.425 ± 1.3; that for CCLLDWSLDNGYNRQLRKET, 0.219 ± 0.32; that for IGFEIHFMYALE, 0.355 ± 1. In turn, ILFVG had an amyloid nucleation score of -0.462 ± 0.42. The substance MEWDAYVMI came in with an amyloid nucleation score of 0.442 ± 0.84. For the substance GASAEEIYCQP, the amyloid nucleation score was -0.513 ± 0.34.

The substance ICKFDLALKFRGRYTEAEWC yielded an amyloid nucleation score of 1 ± 0.32.

With GDQSM, the amyloid nucleation score turned out to be 0.262 ± 0.31. With TIWFAF, the amyloid nucleation score was -0.128 ± 0.64. CMAFVFKTCFVFRCNVGKCA gave an amyloid nucleation score of 0.527 ± 0.28. SQRSMRRRRVRVIKDARYNW yielded an amyloid nucleation score of 0.224 ± 0.48.

The substance KCMTIAWIQSSVSAILLLNC showed an amyloid nucleation score of -0.181 ± 1.4. HAVQLRYLKKKWGWYALCKR showed an amyloid nucleation score of 0.712 ± 0.72.

As for RVNIV, the amyloid nucleation score is -0.624 ± 0.48. The substance YSMHKLSVFRRTYSVTISRT came in with an amyloid nucleation score of 0.591 ± 0.55. Take KMECVVRVSGCRDKVDWTAG: the amyloid nucleation score came to 2.53 ± 0.2. The result for VYFIRIHLLFRHRTGGICNT reads 1.06 ± 0.72.

The substance IVSKFSYQFKSIGINFYFFR returned an amyloid nucleation score of 4.18 ± 0.12. The result for AWYWAMAIMRVSIKVWPLLL reads -0.713 ± 0.7; that for RILYMYWVFMVLFMTPRCLD, -0.099 ± 0.48; that for WMFMNLVGVMFDGHGPGGSA, 1.66 ± 0.28. In turn, AIRWYGMDDMPTRGYQWSPA registered an amyloid nucleation score of -0.128 ± 0.59. For HFYSRYRTPQTRS, the amyloid nucleation score was -0.549 ± 0.64.

HCNIMIDSTSLFNGGLVFYN returned an amyloid nucleation score of 4.83 ± 0.059. The result for LLIWRN reads 0.995 ± 0.62; that for DCGDNRLTTEGQKSSSPVAD, 0.378 ± 0.3; that for AQFSTKPQQRIP, 1.51 ± 0.56. For the substance GMSIE, the amyloid nucleation score was -0.314 ± 0.8. Regarding TIVSGTRSYNLHRSILLLHL, the amyloid nucleation score stood at 1.5 ± 0.23. IGATLAPLTMSLNRSSDESS displayed an amyloid nucleation score of 0.655 ± 0.64. LWWSSSLLASTAQCQGTGFM: the amyloid nucleation score was -0.255 ± 0.76. LFLFTGLSSRSLHMCIYEIL yielded an amyloid nucleation score of -0.046 ± 0.34. Take YTLMLCNVASVDSWI: the amyloid nucleation score stood at 5.05 ± 0.063. To FDAMSANLESIYFSFNENMY belongs -0.572 ± 0.56.

With IIWIRAVPLMTRNEGVCECG, the amyloid nucleation score is -0.982 ± 1.8. In the case of DNDPMYYADSIEECF, the amyloid nucleation score result was “inactive”. The result for SNDTLS reads 0.265 ± 0.39. Consider DSGCRTRVTLSRGFYRTFSS, for which the amyloid nucleation score was 1.2 ± 0.6. The result for PNMARHPFYEDMCFTVDVTN reads -1 ± 0.44; that for HRKTSPISENQVY, -0.59 ± 0.27.

As for LYHIGIGLKRSFNDAYV, the amyloid nucleation score came out at 0.038 ± 0.44.

VFHFYILMNCESCVTGGVPV had an amyloid nucleation score of 7.938 ± 0.054. For the substance HLSVMMGFGFRTFNMIVMVC, the amyloid nucleation score turned out to be 1.05 ± 0.26.

In turn, GFRYEPNWSLSFPGV showed an amyloid nucleation score of 0.214 ± 0.41. Substance FGLHCINLNWVEKWFDIDGP showed an amyloid nucleation score of -0.245 ± 0.84. The result for FTWMRYQKHEGHFI reads -0.447 ± 1.2. The substance QCAWCTRSVNNMYQTLEYHI displayed an amyloid nucleation score of 6.151 ± 0.049. RVYISMM registered an amyloid nucleation score of -1.41 ± 1.7.

For HVDDIWWTTFMYFPRCHLHV, the amyloid nucleation score was 0.858 ± 0.57. The substance SNSSMWAYRVC yielded an amyloid nucleation score of 0.497 ± 0.74.

Substance RYHRTGCLGILWLSLSHRLS yielded an amyloid nucleation score of 0.418 ± 0.59. With EECAFYSSMK, the amyloid nucleation score result is “inactive”.

With YRWSLTLNLL, the amyloid nucleation score is -0.651 ± 0.47.

CVKERELIFFWYVVRSEYDL displayed an amyloid nucleation score of -0.485 ± 0.47. Regarding IIVTSKQSTTYTHLVWERSG, the amyloid nucleation score was -0.629 ± 0.69. In the case of DMIDSGGNALHSSQAHNYRR, the amyloid nucleation score is 1.08 ± 0.37. On to NGNDDLSQTTEVKGYVGATL, for which the amyloid nucleation score was -0.3 ± 0.37. As to SSFRLHR, the amyloid nucleation score result is “inactive”. The result for RGMIFLHQASCLHRDN reads -0.836 ± 0.61; that for IYQKGMVLGATRNGFSRCKG, -0.173 ± 0.3. In the case of WRTSEFSHSLVKYVLSRVLT, the amyloid nucleation score stood at 1.31 ± 0.56. The result for ALLIPINTLGDN reads 0.605 ± 0.7; that for TMIGILWCSYINVALYSGGL, 1.22 ± 0.28; that for GEIGNIPLMKRRTEWQFVVA, 0.25 ± 0.47. ISQVIGSRILPRPTEQVA displayed an amyloid nucleation score of -1.96 ± 1.3.

As to HTRRTEFHAGYYRINTAYAV, the amyloid nucleation score came to 0.268 ± 0.7. Substance PKARYRFSWLTRYNLNNRRE gave an amyloid nucleation score of -0.608 ± 0.52. Take HFICKLND: the amyloid nucleation score was determined as 0.354 ± 0.34. To PEVSIFFLFLGMVYLMWQWV belongs -0.839 ± 0.7. CFIFFPSKIHPLICTKTRAK came in with an amyloid nucleation score of 0.446 ± 0.34. With DLEGMPELARDVGAKI, the amyloid nucleation score is -0.825 ± 0.98. To LSKCTKRKFTMCWDSLVRK belongs 0.779 ± 0.26. In the case of MDLGRMSSGFMRSNMNKKVR, the amyloid nucleation score turned out to be 0.519 ± 0.4.

In turn, GNMSCPFVQRREVLLC returned an amyloid nucleation score of -0.383 ± 1.4. The substance HTKDSGSVARCVVSNLSCNT yielded an amyloid nucleation score of 1.09 ± 0.48. Turning to HGALMNNWDLKACFC, the amyloid nucleation score is -0.786 ± 0.41. HQVVNNGTWGEQYIWMLSAC registered an amyloid nucleation score of 0.442 ± 0.46. To PRRSY belongs 1.41 ± 0.84; to CNKWRYSFVCIPGISRQ, 2.22 ± 0.091; to SKFFQLFSVTILYAMDSGPC, -0.462 ± 0.7. In turn, VDRLAEMHTLEWARSVRLSV returned an amyloid nucleation score of 0.55 ± 0.92.

On to MCLTRSSLEVRQVTIVMWSG, for which the amyloid nucleation score worked out at 0.387 ± 0.52. Substance CFRELPYSLYNC yielded an amyloid nucleation score of -0.666 ± 0.42. In the case of QVALYKVVVYKTWDVGFPSC, the amyloid nucleation score worked out at 0.988 ± 0.9. On to ILFSNCSFLKSCYWFK, for which the amyloid nucleation score is 7.25 ± 0.085.

On to WTRSM, for which the amyloid nucleation score was determined as 0.018 ± 0.41. As to KGELLGDWGAIYHWCF, the amyloid nucleation score result was “inactive”. RDSITITVNCT: the amyloid nucleation score stood at 2.44 ± 0.078. With KMRILWVV, the amyloid nucleation score was found to be 0.945 ± 0.51. In turn, LKVERMTRKPHGVELLSFRR showed an amyloid nucleation score of -0.163 ± 0.97. TLDKDLDMGRP: the amyloid nucleation score was 0.625 ± 0.56.

Substance KCRKASMSSPILDLCTRMRC showed an amyloid nucleation score of -1.18 ± 1.9. Take NTVRNMSVNELFVSFDRGWF: the amyloid nucleation score was 4.83 ± 0.063. On to SSGYGECAFVT, for which the amyloid nucleation score is -0.055 ± 0.33. For the substance RQDGYPRCIVRVILLECSLI, the amyloid nucleation score was -0.321 ± 0.66. As for DWLFLEFGHFTMPEHTKELE, the amyloid nucleation score is -0.68 ± 1.2. NSFVTVFLRWKYFVMSDMWP: the amyloid nucleation score was -0.139 ± 0.25.

As for SSRGRPLQPSIQIKYSFVMY, the amyloid nucleation score came out at 4.13 ± 0.095.

As to FYLHNICVRR, the amyloid nucleation score is -0.249 ± 0.52. Substance EPFETQEVMSLNMCSNQMVF yielded an amyloid nucleation score of 0.333 ± 0.27.

For the substance KISYADF, the amyloid nucleation score was 0.646 ± 1.1.

Consider FAAVPYISVLIRRLCLPYRT, for which the amyloid nucleation score came out at 1.07 ± 0.7. The result for SLFMSYLCRLVHRLLSRKIG reads -0.172 ± 0.28; that for CWVCNEKRAFRRPVSNQLRV, -0.146 ± 0.85; that for VNQFLRAMVPLKLRYRYFCL, 1.02 ± 0.74. KISITSTIVFS yielded an amyloid nucleation score of 1.32 ± 0.33. To TKLKNWGLNLGMASGNQSDR belongs -0.725 ± 0.45; to TDNTVVVMHWFHTFSPGARK, 2.08 ± 0.28.
